In the supplement of paper PMC9876800:

Tested on: peptide library, one residue held at a place counted from the S/T acceptor
Assay: relative phosphorylation of the sub-library (ratio to the mean residue at this position); higher = residue favoured
Details: human
How it was run: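 Each biotinylated degenerate peptide sub-library fixed one residue at one position around a central Ser/Thr and was incubated with a purified recombinant kinase, a human or orthologue construct, in 384-well plates. The 90 min reactions, under kinase-specific conditions, contained 50 μM peptide and 50 μM ATP spiked with γ-32P-ATP. Phosphorylation was read by phosphorimaging spots on streptavidin membranes and quantifying them by densitometry. Relative sub-library phosphorylation expresses each value as a ratio to the mean residue at that position.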

PRKD3, construct: Full length, sequence (O94806 whole entry, looked up): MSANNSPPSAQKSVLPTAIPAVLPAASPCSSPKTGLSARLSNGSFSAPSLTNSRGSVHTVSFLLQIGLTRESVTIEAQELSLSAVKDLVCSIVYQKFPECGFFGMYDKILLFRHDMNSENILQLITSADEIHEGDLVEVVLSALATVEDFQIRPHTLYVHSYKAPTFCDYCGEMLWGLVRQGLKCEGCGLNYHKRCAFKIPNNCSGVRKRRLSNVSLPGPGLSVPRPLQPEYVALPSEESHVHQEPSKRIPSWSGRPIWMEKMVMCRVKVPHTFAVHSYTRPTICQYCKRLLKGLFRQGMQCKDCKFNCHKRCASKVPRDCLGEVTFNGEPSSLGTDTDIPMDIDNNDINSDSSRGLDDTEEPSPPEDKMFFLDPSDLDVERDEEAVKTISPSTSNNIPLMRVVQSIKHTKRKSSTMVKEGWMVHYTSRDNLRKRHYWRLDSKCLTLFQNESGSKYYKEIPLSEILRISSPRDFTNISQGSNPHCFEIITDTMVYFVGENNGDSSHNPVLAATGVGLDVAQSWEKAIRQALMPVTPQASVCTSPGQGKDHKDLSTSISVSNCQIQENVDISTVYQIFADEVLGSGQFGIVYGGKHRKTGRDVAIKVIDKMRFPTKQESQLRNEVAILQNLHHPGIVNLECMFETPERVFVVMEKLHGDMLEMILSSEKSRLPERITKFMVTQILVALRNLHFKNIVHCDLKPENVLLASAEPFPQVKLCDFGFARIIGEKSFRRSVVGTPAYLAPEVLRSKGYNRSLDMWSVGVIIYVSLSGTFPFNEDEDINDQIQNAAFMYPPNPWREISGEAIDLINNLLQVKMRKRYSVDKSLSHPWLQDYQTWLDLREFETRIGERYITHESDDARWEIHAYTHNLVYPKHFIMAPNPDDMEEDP
PRKD1, construct: Full length, sequence (Q15139 whole entry, looked up): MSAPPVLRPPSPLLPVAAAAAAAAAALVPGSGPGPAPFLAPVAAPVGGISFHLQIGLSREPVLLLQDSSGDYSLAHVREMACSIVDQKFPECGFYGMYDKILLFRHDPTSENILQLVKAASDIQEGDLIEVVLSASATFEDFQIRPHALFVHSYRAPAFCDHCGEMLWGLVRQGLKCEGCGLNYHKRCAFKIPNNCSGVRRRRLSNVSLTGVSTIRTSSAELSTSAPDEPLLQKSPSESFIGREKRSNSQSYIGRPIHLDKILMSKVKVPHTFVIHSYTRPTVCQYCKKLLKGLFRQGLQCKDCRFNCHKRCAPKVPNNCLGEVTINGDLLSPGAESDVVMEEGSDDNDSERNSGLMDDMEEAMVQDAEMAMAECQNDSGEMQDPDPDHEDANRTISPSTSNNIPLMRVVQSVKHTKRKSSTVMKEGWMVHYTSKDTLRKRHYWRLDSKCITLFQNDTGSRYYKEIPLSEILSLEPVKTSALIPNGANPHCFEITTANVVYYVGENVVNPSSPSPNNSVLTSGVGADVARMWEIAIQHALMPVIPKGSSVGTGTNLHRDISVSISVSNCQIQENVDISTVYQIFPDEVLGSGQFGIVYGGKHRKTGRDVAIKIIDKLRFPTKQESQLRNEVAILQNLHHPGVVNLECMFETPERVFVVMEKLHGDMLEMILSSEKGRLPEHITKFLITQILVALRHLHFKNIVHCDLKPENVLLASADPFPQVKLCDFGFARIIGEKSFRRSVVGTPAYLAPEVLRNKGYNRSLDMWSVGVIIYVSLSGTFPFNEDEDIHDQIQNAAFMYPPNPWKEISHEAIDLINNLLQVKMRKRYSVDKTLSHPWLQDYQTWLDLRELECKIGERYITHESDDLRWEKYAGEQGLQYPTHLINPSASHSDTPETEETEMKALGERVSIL
SIK1, construct: aa1-303, sequence (P57059 1-303, looked up): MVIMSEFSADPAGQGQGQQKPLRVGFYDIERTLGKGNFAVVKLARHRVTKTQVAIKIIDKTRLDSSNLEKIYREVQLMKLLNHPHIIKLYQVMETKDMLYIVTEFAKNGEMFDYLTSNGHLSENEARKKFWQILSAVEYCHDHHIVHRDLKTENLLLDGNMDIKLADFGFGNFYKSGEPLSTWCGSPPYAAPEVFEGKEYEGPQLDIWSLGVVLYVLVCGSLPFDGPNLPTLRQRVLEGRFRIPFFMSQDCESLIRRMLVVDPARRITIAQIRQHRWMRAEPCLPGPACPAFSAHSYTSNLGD
PRKX, construct: Full length, sequence (P51817 whole entry, looked up): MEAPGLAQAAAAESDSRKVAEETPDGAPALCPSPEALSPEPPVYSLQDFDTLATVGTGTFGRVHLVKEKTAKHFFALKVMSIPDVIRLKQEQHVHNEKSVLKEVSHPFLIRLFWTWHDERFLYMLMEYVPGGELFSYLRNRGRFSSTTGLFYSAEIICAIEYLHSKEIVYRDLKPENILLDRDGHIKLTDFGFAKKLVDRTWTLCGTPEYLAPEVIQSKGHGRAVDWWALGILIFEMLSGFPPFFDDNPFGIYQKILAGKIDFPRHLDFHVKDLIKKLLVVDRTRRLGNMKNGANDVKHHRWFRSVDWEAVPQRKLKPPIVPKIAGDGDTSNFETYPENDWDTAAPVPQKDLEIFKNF

PRKD1, construct: Full length (from UniProt Q15139)
relative phosphorylation
Details	at +1	at +2	at +3	at +4	at -1	at -2	at -3	at -4	at -5
A fixed	0.979	1.13	0.873	1.1	0.938	1.9	1.38	1.82	1.63
D fixed	0.653	1.21	1.14	1.37	0.869	0.32	0.243	0.514	0.411
E fixed	0.53	0.784	0.839	1.05	0.564	0.578	0.347	0.925	0.362
F fixed	0.964	0.86	0.811	0.885	0.467	0.609	0.47	0.792	0.668
G fixed	1.19	1.52	1.75	1.39	0.878	0.682	0.919	1.86	0.708
H fixed	1.05	1.04	0.95	1.23	0.823	0.726	0.802	0.897	0.506
I fixed	0.989	0.505	0.669	0.601	0.383	0.552	0.284	0.694	1.03
K fixed	0.619	0.518	0.582	0.651	1.79	1.78	1.46	1.09	0.414
L fixed	1.02	0.66	0.887	0.674	0.863	0.735	0.346	0.791	3.41
M fixed	1.22	0.946	0.886	0.924	0.945	1.79	0.653	1.25	0.713
N fixed	2.19	1.9	1.2	1.31	2.05	0.912	0.829	0.831	0.537
P fixed	0.369	1.81	2.37	1.46	2.43	0.593	1.49	0.656	1.34
Q fixed	1.47	1.1	1.13	1.25	1.27	2.26	0.865	1.26	0.953
R fixed	0.537	0.486	0.364	0.436	0.703	1.46	5.06	1.12	1.29
V fixed	1.04	0.688	0.735	0.624	0.613	1.01	0.411	0.844	1.61
W fixed	0.966	0.971	0.889	0.963	0.535	0.455	0.677	0.787	0.538
Y fixed	1.22	0.86	0.926	1.07	0.873	0.644	0.777	0.857	0.878
pThr fixed	0.596	0.624	0.842	0.939	0.207	0.27	0.295	0.467	0.28
pTyr fixed	0.774	0.836	0.826	1.12	0.69	0.357	0.306	0.533	0.624

PRKD3, construct: Full length (from UniProt O94806)
relative phosphorylation
Details	at +1	at +2	at +3	at +4	at -1	at -2	at -3	at -4	at -5
A fixed	0.865	1.03	0.829	0.85	0.845	1.21	1.03	1.31	0.989
D fixed	0.493	0.636	0.664	0.709	0.598	0.341	0.231	0.402	0.344
E fixed	0.444	0.536	0.561	0.66	0.486	0.418	0.272	0.711	0.332
F fixed	1.09	1.07	1	1.09	0.812	0.56	0.417	0.797	0.895
G fixed	0.727	1.06	1.17	1.21	0.6	0.453	0.375	1.21	0.563
H fixed	1.33	1.36	1.22	1.29	1.15	0.839	0.572	1.14	0.525
I fixed	1.02	0.628	0.744	0.795	0.526	0.496	0.321	0.678	1.11
K fixed	1.31	1.27	1.21	1.22	2.07	2.85	2.2	1.98	0.895
L fixed	1.06	0.824	0.957	0.908	1.18	0.867	0.359	0.809	3.37
M fixed	1.16	0.929	0.883	0.854	1.03	1.43	0.444	1.15	0.774
N fixed	1.48	1.26	1.02	1.1	1.38	0.795	0.418	0.649	0.483
P fixed	0.453	1.24	1.72	1.31	1.1	0.374	0.478	0.476	1.08
Q fixed	1.08	0.877	0.984	1.1	0.889	1.83	0.588	1.16	0.866
R fixed	1.28	1.38	1.05	0.774	1.79	2.58	8.02	2.12	1.8
V fixed	0.988	0.718	0.812	0.774	0.751	0.778	0.333	0.85	1.61
W fixed	0.885	1.05	0.991	1.31	0.708	0.526	0.436	0.638	0.544
Y fixed	1.35	1.12	1.19	1.04	1.08	0.657	0.51	0.934	0.827
pThr fixed	0.532	0.513	0.622	0.51	0.321	0.349	0.266	0.508	0.377
pTyr fixed	0.589	0.609	0.669	0.608	0.662	0.409	0.495	0.511	0.572

PRKX, construct: Full length (from UniProt P51817)
relative phosphorylation
Details	at +1	at +2	at +3	at +4	at -1	at -2	at -3	at -4	at -5
A fixed	0.71	1.3	0.688	0.785	0.651	0.289	0.299	1.03	1.08
D fixed	0.862	2.53	1.6	2.09	0.698	0.224	0.2	0.876	1.11
E fixed	0.814	1.04	1.32	1.61	0.424	0.2	0.208	0.881	0.985
F fixed	0.849	0.505	0.697	0.599	0.425	0.212	0.128	0.515	0.596
G fixed	1.06	1.27	1.49	1.08	1.29	0.382	0.477	1.1	1.4
H fixed	0.919	1.16	1.31	1.04	1.18	0.662	1.14	1.09	1.26
I fixed	0.872	0.411	0.344	0.522	0.184	0.143	0.111	0.357	0.528
K fixed	1.55	0.713	1.38	1.12	2.79	4.76	3.29	2.53	2.14
L fixed	0.859	0.47	0.627	0.572	0.399	0.185	0.112	0.451	0.507
M fixed	0.884	0.504	0.462	0.643	0.534	0.176	0.134	0.575	0.651
N fixed	1.41	1.47	1.52	1.48	1.7	0.343	0.383	0.914	1.11
P fixed	0.584	1.84	1.24	1.3	1.55	0.395	0.797	1.22	0.811
Q fixed	1.47	1.24	1.36	1.23	1.41	0.483	0.444	1.18	0.807
R fixed	1.57	0.881	1.13	1.06	2.37	7.88	8.71	2.58	2.12
V fixed	0.801	0.498	0.413	0.623	0.217	0.143	0.112	0.412	0.454
W fixed	1.02	0.624	0.752	0.637	0.457	0.295	0.246	0.686	0.731
Y fixed	0.766	0.548	0.669	0.608	0.711	0.234	0.204	0.613	0.71
pThr fixed	1.32	1.05	1.35	2.62	0.462	0.431	0.421	0.921	1.04
pTyr fixed	1.54	1.38	1.3	1.55	0.999	0.374	0.345	0.864	0.882

SIK1, construct: aa1-303 (from UniProt P57059)
relative phosphorylation
Details	at +1	at +2	at +3	at +4	at -1	at -2	at -3	at -4	at -5
A fixed	0.56	1.1	0.618	0.641	0.972	1.89	0.589	0.941	1.01
D fixed	0.593	0.666	1.84	0.416	0.724	0.326	0.282	0.786	0.672
E fixed	0.718	0.524	0.523	0.334	0.46	0.304	0.309	0.966	0.746
F fixed	0.996	0.694	1.08	0.86	0.432	1.13	0.47	0.768	1.22
G fixed	0.493	0.841	0.595	0.697	2.75	0.851	0.382	1.01	0.737
H fixed	0.797	0.662	1.18	0.767	0.966	1.44	0.877	1.24	0.829
I fixed	1.18	1.06	0.907	2.22	0.289	0.451	0.24	0.457	0.721
K fixed	0.839	0.992	0.716	0.722	1.76	1.23	2.52	1.61	1.31
L fixed	1.11	0.626	0.992	4.05	0.722	0.35	0.343	0.535	1.7
M fixed	1.87	0.998	0.928	1.48	0.82	0.556	0.508	0.93	1.09
N fixed	1.2	1.09	2.97	0.688	1.43	0.809	0.587	1.01	0.894
P fixed	0.315	1.08	0.439	0.676	1.24	0.347	0.505	1.09	0.831
Q fixed	2.08	0.958	0.965	0.557	1.4	0.784	0.675	1.01	0.958
R fixed	1.16	1.33	0.659	0.518	1.22	1.35	6.57	1.86	1.65
V fixed	1.23	1.1	0.599	1.12	0.565	0.868	0.329	0.512	0.744
W fixed	0.868	2.13	0.916	0.695	0.516	2.72	1.25	1.24	1.05
Y fixed	0.982	1.14	1.08	0.564	0.732	1.59	0.569	1.03	0.832
pThr fixed	0.764	0.579	0.35	0.475	0.285	0.388	0.433	0.706	0.562
pTyr fixed	0.75	0.358	0.419	0.526	0.812	0.469	0.515	0.699	0.731
